Measurements as given in PMC10460880, “Cathepsin K‐Activated Probe for Fluoro‐Photoacoustic Imaging of Early Osteolytic Metastasis” (Advanced Science, 2023).

What was measured:
cathepsin K (CTSK) = target: T1, cathepsin K (CTSK) (Homo sapiens, UniProt P43235); assay: Kinetic assay (Michaelis-Menten) of probe cleavage by CTSK; assay type: biochemical
T1 sequence (P43235 115-329): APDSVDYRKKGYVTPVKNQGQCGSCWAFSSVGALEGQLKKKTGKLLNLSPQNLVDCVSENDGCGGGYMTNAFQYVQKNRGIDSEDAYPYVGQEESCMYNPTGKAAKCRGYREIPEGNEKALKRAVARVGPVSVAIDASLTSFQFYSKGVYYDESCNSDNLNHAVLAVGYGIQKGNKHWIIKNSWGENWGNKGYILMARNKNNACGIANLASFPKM
Description: In vitro analysis of cathepsin K (CTSK) activation, selectivity, and sensitivity studies.
Probe CTSK-APPA, D-CTSK-APPA, or CTSK-APP (10 μM) was incubated with CTSK in MES buffer (50 mM, pH 6.0) containing 0.1% DMSO, 2 mM ethylene diamine tetraacetic acid (EDTA), 4 mM dithiothreitol (DTT) and 0.15% chondroitin sulfate (CS) at 37 °C for 1 h. After incubation at the indicated time, UV-Vis spectra, fluorescence spectra, fluorescence images, and PA images of the solutions were recorded. […]
PA images were captured by using a MSOT scanner with
Kinetic assay. Different concentrations of CTSK-APPA or CTSK-APP (1, 2, 5, 10, 20, or 50 μM) were incubated with CTSK (100 ng/mL) in MES buffer containing 0.1% DMSO, 2mM EDTA, 4mM DTT, and 0.15% CS at 37 °C for 5 min. Fluorescence intensities of solution were measured for quantification analyses by a microplate reader (BioTek, Synergy 2) with excitation at 690 nm and emission at 720 nm. The kinetic parameters were calculated according to the Michaelis-Menten equation shown below: V = Vmax×[S]/(Km + [S]), where V is initial velocity, and [S] is substrate concentration.
(1 picture or pasted object on this page, not shown here)

[1] = Bone marrow toxicity analysis (blood RBC and WBC counts); assay type: in vivo, BALB/c nude mice; conditions: i.v. 50 μM, 200 μL; blood 24 h post-injection; n = 3
Description: Bone marrow toxicity analysis. The bone marrow toxicity of CTSK-APPA and CTSK-APP was assessed by blood analyses in mice. SPF grade 4-week-old BALB/c nude mice were intravenously injected with CTSK-APPA(50 μM, 200 μL) or saline (200 μL). The blood samples were collected in anticoagulant tubes at 24 h post-injection and stored at 4°C. The red blood count (RBC) and white blood count (WBC) were further measured.
Renal clearance efficiency studies. SPF grade 4-week-old BALB/c nude mice were intravenously injected with CTSK-APPA or CTSK-APP (50 μM, 200 μL) and placed in metabolic cages. The urine was collected at 3, 6, and 24 h post-injection, and then centrifuged at 5000 r.p.m. for 5 min. The supernatants containing excreted probes were quantified by using a UV-vis absorption spectrometer. […]
In vivo Bioluminescence, DR, CT, and MR imaging. […] Then BL imaging was recorded on an IVIS Spectrum imaging system at 10 min post-injection under anesthesia using isoflurane. All data were analyzed with the Living Image software. DR, CT, and MR imaging were recorded on an IVIS Spectrum imaging system, a single-photon emission computed tomography imaging system, and a preclinical magnetic resonance solution system, respectively.
Real-time tumor imaging. […] Fluorescence and PA images were acquired at 0, 1, 2, 4, 8, 12, and 24 h post-injection. […]
Histology. […] Images were captured by using a fluorescence microscope. […]

Substance: Cbz‐Leu‐Arg‐OH [CTSK-APPA]
- catalytic efficiency (kcat/Km) (cathepsin K (CTSK); from Km and kcat): 890000 M⁻¹ s⁻¹
- Km (cathepsin K (CTSK); probe 1-50 μM, CTSK 100 ng/mL, MES buffer, 37 °C, 5 min, Ex 690/Em 720 nm, n = 3, read-out: Michaelis–Menten constant (Km)): 22.9 µM
- catalytic rate constant (kcat) (cathepsin K (CTSK); probe 1-50 μM, CTSK 100 ng/mL, MES buffer, 37 °C, 5 min, n = 3): 20.4 s⁻¹
- red blood cell (RBC) and white blood cell (WBC) counts vs saline group [1]: No apparent differences
